Data from patent US20210017289A1 (AbbVie / Abbott, published 2021).

How the values were obtained:
[1] = target: T1, Cyno OX40-Fc fusion (cynomolgus monkey, UniProt P43489 29-214 (human entry), limits assumed); test: ELISA on plates coated with Cyno OX40-Fc fusion
T1 construct: also called recombinant cynomolgus (cyno) OX40; not shown: Fc part of the fusion
T1 chain: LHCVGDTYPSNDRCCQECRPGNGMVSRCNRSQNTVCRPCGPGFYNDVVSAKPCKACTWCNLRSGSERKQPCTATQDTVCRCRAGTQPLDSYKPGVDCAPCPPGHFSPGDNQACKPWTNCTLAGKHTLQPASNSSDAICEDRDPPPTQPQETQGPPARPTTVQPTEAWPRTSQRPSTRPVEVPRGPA
Description: Immunolon 4×HB 96-well plates (Thermo Scientific) were coated with 1 μg/mL of Cyno OX40-Fc fusion at 4° C. overnight. Plates were blocked with PBS containing 1% bovine serum albumin (BSA) for 30 minutes at RT and then washed three times with PBST (PBS with 0.1% Tween 20). OX40-coated plates were then incubated with indicated concentrations of anti-OX40 antibody at room temperature for one hour. Plates were washed four times with PBST and then incubated for 1 hour at room temperature with 100 μL of goat anti-human FAB fragment specific-Biotin (Jackson ImmunoResearch) prepared to a dilution of 1:5000 in PBS containing 1% BSA. Plates were then washed five times in PBST and 100 μL of a 1:1000 dilution of streptavidin-HRP (Thermo Scientific) was added to each well and incubated for 30 minutes at room temperature. Plates were then washed five times in PBST and 100 μL of TMB One component (Surmodics) were added to each well and incubated at room temperature until color developed (approximately 5-10 minutes). Optical density (OD) was read at 650 nm (Molecular Devices Spectromax190).

[2] = target: T2, human OX40 expressed on cells (human, UniProt P43489 29-277); test: flow cytometry on Jurkat NF-κB reporter cells expressing human OX40
T2 construct: also called cell-surface human OX40; Jurkat-NF-κB-huOX40
T2 sequence: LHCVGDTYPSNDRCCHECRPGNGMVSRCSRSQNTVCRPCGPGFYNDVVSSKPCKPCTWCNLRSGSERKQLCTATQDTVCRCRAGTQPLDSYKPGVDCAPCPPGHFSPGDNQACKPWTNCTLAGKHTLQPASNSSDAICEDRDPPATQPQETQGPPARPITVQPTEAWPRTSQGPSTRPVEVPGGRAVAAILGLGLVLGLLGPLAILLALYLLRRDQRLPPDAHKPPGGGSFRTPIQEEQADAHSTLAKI
Description: (§1) A Jurkat NF-κB reporter cell line expressing human OX40 protein was cultured in DMEM containing 10% FBS and penicillin/streptomycin (pen/strep). For the binding assay, each cell line was resuspended at 5 million cells per mL. 50 μL (250,000 cells)/well were transferred to each well of a 500 μL polypropylene 96-well plate (Nunc). A 2× stock of test anti-OX40 antibody or isotype control mAb was prepared in a separate dilution plate at 666, 333, 111, 37.03, 12.34, 4.11, 0.457, 0.152, 0.0508, 0.0169, 0.00564 nM in culture media. Each antibody (50 μL/well) was transferred into respective wells of the assay plate. Cells were incubated with the test anti-OX40 antibody or isotype control antibodies for 30 minutes at 4° C. and washed twice with 250 μL/well of PBS by centrifuging at 800 rpm for 3 minutes. Bound antibody was detected with Cy5-Donkey anti-human IgG (H+L) (Jackson ImmunoResearch) diluted to 2 μg/mL (50 μL/well) in PBS for 30 minutes at 4° C. Cells were washed once with 250 μL/well of PBS, resuspended in PBS containing 1% Formaldehyde and analyzed on a dual laser FACSCalibur (Becton Dickinson).

[3] = target: T3, human OX40 chimera with murine CRDII replacing human CRDII (human/mouse chimera, UniProt P43489 29-277); test: flow cytometry on 293s-huOX40-muCRDII cells
T3 chain: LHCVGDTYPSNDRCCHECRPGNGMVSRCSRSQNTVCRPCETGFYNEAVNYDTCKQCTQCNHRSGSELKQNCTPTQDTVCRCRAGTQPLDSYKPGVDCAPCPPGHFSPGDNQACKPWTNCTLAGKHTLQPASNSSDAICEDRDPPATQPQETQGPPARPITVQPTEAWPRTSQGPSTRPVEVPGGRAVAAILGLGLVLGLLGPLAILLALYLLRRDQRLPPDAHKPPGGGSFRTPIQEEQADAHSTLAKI
Description: (§2) After plating cells, 50 μL of Hu3738 or isotype control antibody at 2 μg/mL were added to corresponding wells in duplicate for each cell line and allowed to incubate on ice for 30 minutes. Following incubation, 200 μL of Dulbecco's Phosphate Buffered Saline (DPBS) was added into each well and plates were spun down at 1000 rpm for three minutes. Supernatants from each well were removed and 50 μL of Cy5-Donkey anti-Human IgG (Jackson ImmunoResearch) secondary antibody was added at a 1:250 dilution, which was then incubated for 30 minutes on ice in the dark. Following the incubation period, 200 μL of DPBS was added prior to spinning down the plate at 1000 rpm for three minutes. Supernatants were removed and each well was re-suspended with 100 μL of DPBS+1% Formaldehyde. Samples were analyzed on the dual laser FACSCalibur flow cytometer (Becton Dickinson).

[4] = target: T2, human OX40 expressed on cells; test: flow cytometry on CD3/CD28 bead activated human CD4+ T cells
Description: After 24 hours, the beads were removed with a magnet. Cells were counted and resuspended to 1.5×10⁶/mL. An aliquot of the cell suspension (100 μL) was used per stain. Test antibody was titrated in a 4-fold dilution series starting at 1 μg/mL. Cells were stained for 30 minutes and washed twice. A 1:250 dilution of (4 μg/mL) of Goat anti Human Fc specific-PE/well (Jackson ImmunoResearch) was added in 100 μL/well PBS containing 1% BSA. Cells were stained for an additional 30 minutes and washed twice, transferred to tubes and acquired using the BD LSR Fortessa flow cytometer, and analyzed using FACSDiva analysis software version 8.0.1.

[5] = target: T4, mouse OX40 expressed on 293s cells (mouse, UniProt P47741 20-272); test: flow cytometry on 293s-muOX40 cells
T4 construct: also called murine OX40
T4 sequence: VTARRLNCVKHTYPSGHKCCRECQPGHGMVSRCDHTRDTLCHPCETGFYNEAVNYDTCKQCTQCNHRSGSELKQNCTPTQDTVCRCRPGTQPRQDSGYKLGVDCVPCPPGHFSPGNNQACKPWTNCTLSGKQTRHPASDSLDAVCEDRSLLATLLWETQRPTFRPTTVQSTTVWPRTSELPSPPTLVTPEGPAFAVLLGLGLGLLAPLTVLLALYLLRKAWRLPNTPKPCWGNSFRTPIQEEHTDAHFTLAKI
Description: as §2

[6] = target: T2, human OX40 expressed on cells; test: flow cytometry on Jurkat NF-κB reporter cells expressing human OX40; remark: listed apart in the source
Description: as §1

EC50 [1]: 0.039 nM | EC50 [2]: 0.5 nM | binding result [3]: no binding (tested: 2 µg/mL) | EC50 [4]: 0.053 nM | binding result [5]: no binding (tested: 2 µg/mL) | EC50 [6]: 0.075 µg/mL
B1: Hu3738 (antibody, V domains shown)
VH: EVQLVESGGGLVQPGGSLRLSCAASGFTFSRYGMSWVRQAPGKGLELVATINSNGGRTYYPDSVKGRFTISRDNAKNSLYLQMNSLRAEDTAVYYCAREGITTAYAMDYWGQGTTVTVSS
VL: DIVMTQSPDSLAVSLGERATINCKASQSVDYDGDSYMHWYQQKPGQPPKLLIYAASILESGVPDRFSGSGSGTDFTLTISSLQAEDVAVYYCQQSNEDPRTFGGGTKVEIKR
notes: Humanized antibody; also called exemplary anti-OX40 antibody Hu3738; Hu3738 VH.1b / Hu3738 VL.1
